Data: patent US20240272170A1 (QUANTUM SI, published 2024)

Assays:
[1] = molecular target: T1, QP1165 after cleavage to N-terminal leucine (LKQRVWK); assay: on-chip dynamic sequencing of QP1165, PS2132 run, trace Aperture=1826247
T1 peptide: LKQRVWK

[2] = molecular target: T1, QP1165 after cleavage to N-terminal …; assay: on-chip dynamic sequencing of QP1165, PS2121 run, trace Aperture=1683362
[3] = molecular target: T2, QP1165 after cleavage to N-terminal isoleucine (IAFLKQRVWK); assay: as above
T2 peptide: IAFLKQRVWK

[4] = molecular target: T1, QP1165 after cleavage to N-terminal …; assay: on-chip dynamic sequencing of QP1165, PS1875 run, trace Aperture=295010
[5] = molecular target: T2, QP1165 after cleavage to N-terminal …; assay: as above
[6] = molecular target: T1, QP1165 after cleavage to N-terminal …; assay: on-chip dynamic sequencing of QP1165, 500 nM PS2123 plus five recognizers, 62511 alignments
[7] = molecular target: T1, QP1165 after cleavage to N-terminal …; assay: on-chip dynamic sequencing of QP1165, PS1875 run, trace Aperture=340501
[8] = molecular target: T2, QP1165 after cleavage to N-terminal …; assay: as above
[9] = molecular target: T1, QP1165 after cleavage to N-terminal …; assay: on-chip dynamic sequencing of QP1165, PS1875 run, trace Aperture=430641

PD of a recognition segment in an example trace [1]: 0.52 s | PD of a recognition segment in an example trace [2]: 0.28 s | PD of a recognition segment in an example trace [3]: 0.52 s | PD of a recognition segment in an example trace [4]: 3.19 s | PD of a recognition segment in an example trace [5]: 0.48 s | IPD (interpulse duration) [6]: 17.3 s | PD (pulse duration) [6]: 0.54 s | PD of a recognition segment in an example trace [7]: 0.36 s | PD of a recognition segment in an example trace [8]: 0.49 s | PD of a recognition segment in an example trace [9]: 0.64 s
B1: PS1223 (designed binder)
single polypeptide, two PS961 units in tandem: MPTAASATESAIEDTPAPARPEVDGRTKPKRQPRYHVVLWDDDDHTYQYVVVMLRSLFGHPPSRGYRMAKEMDTQGRVIVLTTTREHAELKRDQIHAFGRDRLLARSKGSMKASIEAEEGSAGSAAGSGEFGSAGSAAGSGEFGSAGSAAGSGEFMPTAASATESAIEDTPAPARPEVDGRTKPKRQPRYHVVLWDDDDHTYQYVVVMLRSLFGHPPSRGYRMAKEMDTQGRVIVLTTTREHAELKRDQIHAFGRDRLLARSKGSMKASIEAEE
notes: dye-labelled recognizer for N-terminal L, I, V in the six-recognizer runs; also called PS1223 (LIV)
